Laboratory results: the supplement of paper PMC10567573

B1: FEM1B (parent)
chain: TLAALLLNRSESDIRYLLGYVSQQ
B2: SMG5 (parent)
chain: TNPDLIIVCAQSSQSLWNRLSVLL

Variants of: B1
Assay: protein stability index of a GFP-peptide fusion (GPS, HEK-293T) (PSI 1-6); higher = more stable
Conditions: c terminus: a fixed tail appended
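Also: lentivirally expressed fusions sorted by FACS into six bins by GFP to DsRed ratio, PSI derived from sequencing read proportions per bin multiplied by bin number.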

Protein stability index of substitutions, site by site:
R15: D 2.12 | E 2.72 | F 3.37 | H 2.4 | I 2.81 | K 2.3 | L 3.36 | M 3.35 | N 2.55 | P 2.03 | Q 1.61 | S 3.23 | T 3.37 | V 1.75 | Y 3.31
Y16: A 4.57 | C 2.91 | D 2.38 | E 2.06 | F 3.75 | G 3.2 | H 1.88 | I 1.57 | K 2.83 | L 2.01 | M 2.45 | N 2.17 | P 2.95 | Q 3.05 | R 2.06 | S 1.81 | T 3.16 | V 2.24 | W 4.55
L17: C 3.59 | D 1.65 | E 3.04 | F 2.82 | G 2.01 | H 1.26 | I 1.99 | K 1.1 | M 3.53 | N 2.24 | P 1.51 | Q 3.77 | R 2.04 | S 1.92 | T 2.9 | V 2.98 | W 2.67
L18: A 1.98 | C 2.45 | D 1.64 | E 1.78 | F 2.34 | H 2.17 | I 2.8 | K 3.43 | M 1.94 | N 1.73 | P 2.69 | Q 3.66 | R 3.15 | S 3.62 | T 3.06 | V 1.67 | W 3.01 | Y 3.1
G19: A 2.38 | C 3.34 | D 2.62 | E 2.37 | F 3.44 | H 2.78 | I 3.01 | K 3.24 | L 2.87 | M 2.35 | P 2.76 | Q 2.11 | R 3.51 | S 2.71 | T 2.4 | V 3.02 | W 1.26 | Y 3.17
Y20: A 2.91 | C 3.38 | D 3.08 | E 4.31 | F 1.29 | G 2.25 | H 2.13 | I 3.01 | K 2.46 | L 2.66 | M 4.22 | N 4.26 | P 2.58 | Q 3 | R 3.14 | T 1.97 | V 3.32 | W 2.52
V21: A 3.97 | C 3.21 | D 2.86 | E 2.03 | F 2.23 | G 1.62 | I 2.41 | K 1.97 | L 3.44 | M 2.17 | N 3.55 | P 2.42 | Q 1.53 | R 1.3 | S 3.12 | T 1.82 | W 3.68 | Y 2.32
S22: A 3.04 | C 2.87 | D 2.48 | F 2.73 | G 2.98 | H 2.55 | I 2.42 | K 2.77 | L 3.22 | N 1.56 | P 2.53 | Q 3.56 | R 2.37 | T 2.5 | V 2.25 | W 3.27 | Y 2.7
Q23: A 2.35 | C 3.58 | D 2.67 | E 3.21 | F 2.3 | G 2.58 | H 2.27 | I 2.75 | K 2.87 | L 1.09 | M 3.68 | N 1.93 | P 1.36 | R 2.6 | S 2.92 | T 3.07 | V 2.77 | Y 2.1
Q24: A 2.5 | C 3.34 | D 2 | E 2.39 | F 2.26 | G 2.68 | H 2.75 | I 3.41 | K 4.32 | M 1.61 | N 2.6 | P 2.31 | S 2.18 | T 3.19 | V 1.75 | W 2.52 | Y 2.22

Variants of: B2
Assay: as above
Conditions: c terminus: a fixed tail appended

Protein stability index: each site, then its substitutions
L24: R 1.93 | A 2.73 | W 2.26 | F 2.86 | Q 1.92 | T 2.64
T1: A 1.38 | Q 3.39 | P 1.98 | L 2.36 | N 3.25 | D 1.57
A10: C 2.61 | G 1.98 | I 3.25 | Q 2.4 | V 4.35 | M 2.8 | R 1.8 | K 1.59 | P 4.01 | F 3.77
I7: G 2.55 | V 1.1 | A 1.51 | R 2.02 | S 1.34 | W 4.05 | Y 1.65 | L 3.84
S21: K 2.19 | G 3.14 | N 3.04 | V 2.88 | C 2.21 | L 2.07 | W 2.75 | A 3.16 | Y 3.25 | E 3.57
S12: K 1.89 | M 2.99 | C 3.33 | D 2.12 | I 3.02
L5: R 1.39 | E 2.95 | I 2.06 | P 2.94 | V 2.51 | T 2.4 | W 1.4 | Q 1.73 | A 2.09 | S 2.17
S15: P 3.51 | K 3.11 | D 2.19 | R 1.25 | E 2.58 | M 3.28 | Q 2.12 | I 4.01
N2: H 1.88 | Y 1.77 | P 3.06 | M 2.18 | R 2.88 | G 2.66 | T 4.22 | I 2.22 | V 2.06 | W 3.06
Q14: N 2.81 | M 2.22 | R 2.73 | V 3.03
D4: R 1.94 | I 2.79 | V 1.67
W17: F 3.58 | T 2.58 | K 2.05 | M 3.06 | P 2.82 | I 2.47
C9: D 2.29 | E 1.72 | N 2.35 | F 2.64 | G 1.45 | A 2.28 | K 1.98
I6: G 2.65 | D 1.8 | V 4.02 | A 2.1 | N 2.4
P3: I 4.44 | V 4.46 | G 3.64 | T 2.8 | A 3.05
L23: D 1.73 | A 1.84 | W 2.85 | R 2.83 | P 3.47
L20: Y 2.11 | E 3.06 | I 2.41 | G 2.45 | N 3.27
V8: K 1.47 | R 2.22 | P 1.31 | T 1.72 | Y 2.59 | H 1.91 | W 2.69 | M 1.46 | N 1.88
N18: W 1.92 | T 2.56 | C 2.27 | H 2.56 | Y 3.31 | D 2.97 | L 5.57
R19: D 3.35 | M 2.1
V22: M 2.98 | Y 1.91 | D 2.03 | C 3.03 | W 1.24 | F 2.52 | Q 1.65 | N 1.58
L16: W 1.93 | T 3.24 | E 2.42 | K 3.19 | F 3.11 | I 2.02 | A 2.1 | D 3.33 | M 3.23
S13: Y 3.59 | P 3.21 | F 1.49 | M 2 | E 1.57
Q11: T 3.57 | P 3.62 | L 3.05 | N 2 | D 3.08 | G 2.09
